Data taken from US20210093695A1, “Method” (APITOPE TECHNOLOGY (BRISTOL) LIMITED, priority 2017, published 2021).

How the values were obtained:
[1] = system: HLA-DQ6; assay: HLA-DQ6 binding of MBP peptides; parameters: species or system human
[2] = target: HLA-DR2 (Homo sapiens, UniProt P01903+P01911); assay: HLA-DR2 binding of MBP peptides
[3] = system: double-transgenic (DTg; human HLA-DR15/MBP-specific T-cell receptor) humanized mice; assay: SCH-induced EAE in double-transgenic humanized mice, clinical score; type: in vivo, mouse; conditions: once weekly from Day 0; ATX-MS-1467 100 μg/dose, MBP82-98 12 μg or 100 μg/dose
Experimental: In double-transgenic (DTg; human HLA-DR15/MBP-specific T-cell receptor) ‘humanized’ mice, EAE was induced using an emulsification of spinal cord homogenate (SCH) and CFA on Day 0. Mice also received a pertussis toxin injection on Days 0 and 2.
Throughout the study, neurological deficits were measured using a standardized clinical score scale: 0=no clinical signs, 1=limp tail, 2=impaired righting reflex, 3=partial hind limb paralysis, 4=complete hind limb paralysis, 5=moribund/death.
If animals reached a score of 4 they were euthanized to reach a humane endpoint.
[…] were treated prophylactically either with subcutaneous (sc) phosphate-buffered saline (PBS) vehicle or ATX-MS-1467 (n=10 per treatment group) starting 3 weeks before EAE induction. […]
ATX-MS-1467 was tested head-to-head with MBP82-98 and GA. […] For both compounds, the human equivalent dose (HED) was calculated based on body surface area: MBP82-98=12 μg/dose and GA=75 μg (3.75 mg/kg)/dose.
Statistical analyses for significant differences on clinical scores by treatment over time and cumulative clinical scores (area under the curve) were performed using Kruskal-Wallis with Dunn's post hoc analysis of comparisons. Disease onset was analyzed by Kaplan-Meier curve and significance was determined using the log-rank (Mantel-Cox) test. Cellular brain infiltrates were analyzed by Student's t-test. […]

[4] = system: DR2/Ob1Het/Het mice; assay: Serum cytokine levels after s.c. treatment/challenge (Milliplex); type: in vivo, mouse
Experimental: Double transgenic heterozygous mice, referred to here as DR2/Ob1Het/Het, were used for these studies. These mice express human leukocyte antigen (HLA) isotypes DRA*0101 and DRB1*1501 under the mouse major histocompatibility […] promoter and the MBP84-102-specific TCR (Ob.1A12) expressed under mouse TCRα and β promoter/enhancer elements.
DR2/Ob1Het/Het mice were treated and/challenged by a single or multiple subcutaneous (s.c.) injections of 100 μg of ATX-MS-1467 or 25 μg of a HLA binding protein (HLAbp) unrelated to EAE and/or 30-1000 μg of myelin basic protein (MBP, Sigma, M1891). Treatment paradigms varied between studies and groups (see specifics in each study). Chronic treatment with ATX-MS-1467 or with HLAbp followed a 3× weekly regimen.
Cytokine levels were quantified in serum of DR2/Ob1Het/Het mice at different time points using a Milliplex MAP mouse Cytokine/Chemokine magnetic kit (MCYTOMAG-70-PMX).

HLA-DR2, sequence (P01903 26-254): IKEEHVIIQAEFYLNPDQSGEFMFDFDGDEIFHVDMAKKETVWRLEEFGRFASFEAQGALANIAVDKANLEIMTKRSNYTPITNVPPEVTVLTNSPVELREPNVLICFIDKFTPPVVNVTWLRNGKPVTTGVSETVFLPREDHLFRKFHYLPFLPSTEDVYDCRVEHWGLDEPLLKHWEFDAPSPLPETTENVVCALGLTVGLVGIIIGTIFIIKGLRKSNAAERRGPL
HLA-DR2, sequence (P01911 30-266): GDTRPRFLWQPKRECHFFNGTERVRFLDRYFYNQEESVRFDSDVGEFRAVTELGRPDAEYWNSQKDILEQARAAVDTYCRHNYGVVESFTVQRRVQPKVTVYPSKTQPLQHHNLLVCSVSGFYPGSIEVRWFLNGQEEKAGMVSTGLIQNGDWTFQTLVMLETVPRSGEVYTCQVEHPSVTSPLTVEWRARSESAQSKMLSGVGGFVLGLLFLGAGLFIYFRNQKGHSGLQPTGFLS

| HLA-DQ6 binding [1] | HLA-DR2 binding [2] | Molecule | also measured |
| --- | --- | --- | --- |
| HLA-DQ6 binding | – | H-Ala-Ser-Asp-Tyr-Lys-Ser-Ala-His-Lys-Gly-Phe-Lys-Gly-Val-Asp-NH2 (H-ASDYKSAHKGFKGVD-NH2) [MBP 131-145] | – |
| – | HLA-DR2 binding | H-Glu-Asn-Pro-Val-Val-His-Phe-Phe-Lys-Asn-Ile-Val-Thr-Pro-Arg-Thr-Pro-NH2 (H-ENPVVHFFKNIVTPRTP-NH2) [MBP 83-99] | – |
| – | HLA-DR2 binding | H-Gly-Phe-Lys-Gly-Val-Asp-Ala-Gln-Gly-Thr-Leu-Ser-Lys-Ile-Phe-NH2 (H-GFKGVDAQGTLSKIF-NH2) [MBP 140-154] | – |
| HLA-DQ6 binding | – | H-Pro-Arg-His-Arg-Asp-Thr-Gly-Ile-Leu-Asp-Ser-Ile-Gly-Arg-Phe-NH2 (H-PRHRDTGILDSIGRF-NH2) [MBP 30-44] | – |
| – | – | MBP82-98: 17-amino acid synthetic peptide identical to MBP (dirucotide) | disease severity vs vehicle [3]: did not show significant effects |
| – | – | MBP: myelin basic protein (MBP, Sigma, M1891), full length (protein, UniProt P02686 1-304, looked up) Myelin basic protein: MGNHAGKRELNAEKASTNSETNRGESEKKRNLGELSRTTSEDNEVFGEADANQNNGTSSQDTAVTDSKRTADPKNAWQDAHPADPGSRPHLIRLFSRDAPGREDNTFKDRPSESDELQTIQEDSAATSESLDVMASQKRPSQRHGSKYLATASTMDHARHGFLPRHRDTGILDSIGRFFGGDRGAPKRGSGKDSHHPARTAHYGSLPQKSHGRTQDENPVVHFFKNIVTPRTPPPSQGKGRGLSLSRFSWGAEGQRPGFGYGGRASDYKSAHKGFKGVDAQGTLSKIFKLGGRDSRSGSPMARR | dose dependence of serum cytokine secretion ([4]; 2 h after s.c. injection, 30-1000 μg): dose-dependent secretion of cytokines; cytokine secretion in the blood after acute treatment ([4]; single s.c. injection, FIG. 4 (MBP), FIG. 5 (ATX-MS-1467 100 μg/mouse)): induces the secretion of both pro and anti-inflammatory cytokines |
